Patent publication US6063627

System: Cre recombinase (Bacteriophage P1)
Experiment: cell_activity
Conditions: cotransfection with Cre-expressing plasmid

Lox sites in pEOBglugl gave an activity (log induction of beta-glucuronidase) greater than 3.
